Reference: article PMC9482650, “Quantitative fragmentomics allow affinity mapping of interactomes” (Nature Communications, 2022)

T1: HTRA3, P83110
T1 sequence (P83110 354-453, limits assumed, looked up): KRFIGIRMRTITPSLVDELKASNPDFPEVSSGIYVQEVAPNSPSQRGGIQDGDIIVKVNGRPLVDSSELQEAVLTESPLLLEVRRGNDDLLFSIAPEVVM

T2: GRIP1_4, Q9Y3R0
T2 sequence (Q9Y3R0 467-571, limits assumed, looked up): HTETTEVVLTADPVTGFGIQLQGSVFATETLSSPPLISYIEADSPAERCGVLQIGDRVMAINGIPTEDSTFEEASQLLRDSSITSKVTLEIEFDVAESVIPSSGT

T3: ARHGAP21, Q5T5U3
T3 sequence (Q5T5U3 45-169, limits assumed, looked up): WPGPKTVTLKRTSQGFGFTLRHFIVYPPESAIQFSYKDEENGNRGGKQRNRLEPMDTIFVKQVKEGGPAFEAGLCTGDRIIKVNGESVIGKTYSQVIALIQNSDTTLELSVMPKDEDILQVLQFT

T4: DLG3_2, Q92796
T4 sequence (Q92796 221-321, limits assumed, looked up): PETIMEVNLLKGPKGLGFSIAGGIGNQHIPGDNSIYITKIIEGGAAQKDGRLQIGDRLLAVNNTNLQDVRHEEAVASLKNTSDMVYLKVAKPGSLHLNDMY

T5: GRIP1_3, Q9Y3R0
T5 sequence (Q9Y3R0 247-346, limits assumed, looked up): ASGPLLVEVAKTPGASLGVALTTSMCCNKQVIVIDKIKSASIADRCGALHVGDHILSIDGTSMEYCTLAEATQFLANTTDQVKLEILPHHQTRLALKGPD

T6: APBA1_1, Q02410
T6 sequence (Q02410 651-752, limits assumed, looked up): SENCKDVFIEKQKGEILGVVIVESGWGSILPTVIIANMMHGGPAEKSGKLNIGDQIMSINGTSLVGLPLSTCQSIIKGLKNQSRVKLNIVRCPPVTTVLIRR

T7: DFNB31_2, Q9P202
T7 sequence (Q9P202 274-371, limits assumed, looked up): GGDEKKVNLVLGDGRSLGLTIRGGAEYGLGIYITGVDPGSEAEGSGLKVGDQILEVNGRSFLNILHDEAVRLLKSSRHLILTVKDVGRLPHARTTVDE

T8: PDZRN3_1, Q9UPQ7
T8 sequence (Q9UPQ7 244-349, limits assumed, looked up): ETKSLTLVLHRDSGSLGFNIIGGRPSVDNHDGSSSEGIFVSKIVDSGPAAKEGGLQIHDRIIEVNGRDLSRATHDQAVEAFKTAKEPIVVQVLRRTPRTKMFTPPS

T9: LIN7B, Q9HAP6
T9 sequence (Q9HAP6 88-185, limits assumed, looked up): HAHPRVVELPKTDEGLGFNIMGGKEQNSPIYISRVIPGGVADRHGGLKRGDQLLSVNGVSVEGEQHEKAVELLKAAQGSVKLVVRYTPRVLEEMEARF

T10: LIN7C, Q9NUP9
T10 sequence (Q9NUP9 88-185, limits assumed, looked up): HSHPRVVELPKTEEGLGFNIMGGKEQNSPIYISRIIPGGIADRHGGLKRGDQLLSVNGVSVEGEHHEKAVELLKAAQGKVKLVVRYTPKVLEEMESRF

T11: MPP7, Q5T2T1
T11 sequence (Q5T2T1 134-230, limits assumed, looked up): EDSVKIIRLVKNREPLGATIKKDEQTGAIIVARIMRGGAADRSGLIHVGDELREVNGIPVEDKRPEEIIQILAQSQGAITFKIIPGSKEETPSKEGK


Columns and labels:
Experiment in all cases: holdup assay
Set-up in all cases: key: below the threshold = too weak to quantify, mostly under pKd 3.1 to 4
Settings in all cases: plain residues with an end cap or a label only (N-terminal biotin on a linker: ado-ado)
GORASP1, Q9BQQ3 = target: GORASP1, Q9BQQ3
Chain of GORASP1, Q9BQQ3 (Q9BQQ3 1-208): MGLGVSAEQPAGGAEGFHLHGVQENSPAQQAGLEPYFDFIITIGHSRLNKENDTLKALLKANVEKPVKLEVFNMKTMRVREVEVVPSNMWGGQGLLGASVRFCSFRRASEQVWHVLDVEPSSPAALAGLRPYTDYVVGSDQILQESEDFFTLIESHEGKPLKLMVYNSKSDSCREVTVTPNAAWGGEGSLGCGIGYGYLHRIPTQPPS

Inadl_2, Q8NI35 = target: Inadl_2, Q8NI35
Chain of Inadl_2, Q8NI35 (Q8NI35 238-335): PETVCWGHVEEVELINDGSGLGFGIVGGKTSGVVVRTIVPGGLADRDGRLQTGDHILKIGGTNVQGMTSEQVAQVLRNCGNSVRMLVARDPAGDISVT

HTRA3, P83110 = target: T1, HTRA3, P83110
GRIP1_4, Q9Y3R0 = target: T2, GRIP1_4, Q9Y3R0
GORASP2, Q9H8Y8 = target: GORASP2, Q9H8Y8
LNX1_1, Q8TBB1 = target: LNX1_1, Q8TBB1
Chain of LNX1_1, Q8TBB1 (Q8TBB1 261-371): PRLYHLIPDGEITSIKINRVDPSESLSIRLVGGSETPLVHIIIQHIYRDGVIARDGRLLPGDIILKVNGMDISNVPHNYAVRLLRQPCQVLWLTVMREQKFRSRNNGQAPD

NHERF4_2, Q86UT5 = target: NHERF4_2, Q86UT5
Chain of NHERF4_2, Q86UT5 (Q86UT5 220-308): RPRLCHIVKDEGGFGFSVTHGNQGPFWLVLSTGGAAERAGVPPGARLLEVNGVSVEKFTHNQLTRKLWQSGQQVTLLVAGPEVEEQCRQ

FRMPD4, Q14CM0 = target: FRMPD4, Q14CM0
Chain of FRMPD4, Q14CM0 (Q14CM0 67-160): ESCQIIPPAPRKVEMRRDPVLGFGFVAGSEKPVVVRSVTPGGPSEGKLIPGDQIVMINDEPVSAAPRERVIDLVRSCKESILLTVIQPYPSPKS

GRID2IP_1, A4D2P6 = target: GRID2IP_1, A4D2P6
Chain of GRID2IP_1, A4D2P6 (A4D2P6 1-87): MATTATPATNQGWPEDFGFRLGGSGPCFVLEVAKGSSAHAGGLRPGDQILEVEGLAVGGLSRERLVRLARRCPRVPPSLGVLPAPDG

MAGI2_4, Q86UL8 = target: MAGI2_4, Q86UL8
Chain of MAGI2_4, Q86UL8 (Q86UL8 772-865): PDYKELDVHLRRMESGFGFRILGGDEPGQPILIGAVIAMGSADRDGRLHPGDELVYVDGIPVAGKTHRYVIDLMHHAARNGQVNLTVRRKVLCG

ARHGAP21, Q5T5U3 = target: T3, ARHGAP21, Q5T5U3
DLG3_2, Q92796 = target: T4, DLG3_2, Q92796
GRIP1_3, Q9Y3R0 = target: T5, GRIP1_3, Q9Y3R0
APBA1_1, Q02410 = target: T6, APBA1_1, Q02410
GRIP2_5, Q9C0E4 = target: GRIP2_5, Q9C0E4
Chain of GRIP2_5, Q9C0E4 (Q9C0E4 544-642): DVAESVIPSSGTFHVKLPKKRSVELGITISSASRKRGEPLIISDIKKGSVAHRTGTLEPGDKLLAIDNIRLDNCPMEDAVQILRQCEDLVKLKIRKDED

DFNB31_2, Q9P202 = target: T7, DFNB31_2, Q9P202
PDZRN3_1, Q9UPQ7 = target: T8, PDZRN3_1, Q9UPQ7
GIPC2, Q8TF65 = target: GIPC2, Q8TF65
Chain of GIPC2, Q8TF65 (Q8TF65 112-203): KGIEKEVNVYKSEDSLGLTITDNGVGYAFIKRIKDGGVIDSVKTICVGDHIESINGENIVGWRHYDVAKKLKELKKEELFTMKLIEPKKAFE

LIN7B, Q9HAP6 = target: T9, LIN7B, Q9HAP6
FRMPD3, Q5JV73 = target: FRMPD3, Q5JV73
Chain of FRMPD3, Q5JV73 (Q5JV73 12-100): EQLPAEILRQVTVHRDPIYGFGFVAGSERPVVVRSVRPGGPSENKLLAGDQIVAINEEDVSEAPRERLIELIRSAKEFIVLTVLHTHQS

CASK, O14936 = target: CASK, O14936
Chain of CASK, O14936 (O14936 487-570): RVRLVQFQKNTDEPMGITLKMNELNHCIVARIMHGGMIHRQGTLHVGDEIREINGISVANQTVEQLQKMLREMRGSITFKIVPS

LIN7C, Q9NUP9 = target: T10, LIN7C, Q9NUP9
DLG4_1, P78352 = target: DLG4_1, P78352
Chain of DLG4_1, P78352 (P78352 62-152): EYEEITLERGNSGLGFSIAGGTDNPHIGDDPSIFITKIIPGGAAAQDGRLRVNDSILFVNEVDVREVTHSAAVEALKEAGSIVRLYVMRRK

MPP7, Q5T2T1 = target: T11, MPP7, Q5T2T1
MAGI2_3, Q86UL8 = target: MAGI2_3, Q86UL8
Chain of MAGI2_3, Q86UL8 (Q86UL8 600-682): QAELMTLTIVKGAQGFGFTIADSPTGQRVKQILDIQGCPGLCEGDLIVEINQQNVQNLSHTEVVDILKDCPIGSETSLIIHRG

Binder	pKd (GORASP1, Q9BQQ3)	pKd (Inadl_2, Q8NI35)	pKd (HTRA3, P83110)	pKd (GRIP1_4, Q9Y3R0)	pKd (GORASP2, Q9H8Y8)	pKd (LNX1_1, Q8TBB1)	pKd (NHERF4_2, Q86UT5)	pKd (FRMPD4, Q14CM0)	pKd (GRID2IP_1, A4D2P6)	pKd (MAGI2_4, Q86UL8)	pKd (ARHGAP21, Q5T5U3)	pKd (DLG3_2, Q92796)	pKd (GRIP1_3, Q9Y3R0)	pKd (APBA1_1, Q02410)	pKd (GRIP2_5, Q9C0E4)	pKd (DFNB31_2, Q9P202)	pKd (PDZRN3_1, Q9UPQ7)	pKd (GIPC2, Q8TF65)	pKd (LIN7B, Q9HAP6)	pKd (FRMPD3, Q5JV73)	further results
NLSIEKETKL [ASNSD1, Q9NWL6]	below the threshold	below the threshold	below the threshold	below the threshold	below the threshold	below the threshold	below the threshold	4.28	below the threshold	below the threshold	below the threshold	4.24	below the threshold	below the threshold	below the threshold	3.94	4.67	below the threshold	4.47	below the threshold	pKd (CASK, O14936): below the threshold; pKd (LIN7C, Q9NUP9): 4.2; pKd (DLG4_1, P78352): below the threshold; pKd (MPP7, Q5T2T1): below the threshold; pKd (MAGI2_3, Q86UL8): below the threshold
EVNETDDTKM [KCNJ1, P48048]	below the threshold	below the threshold	below the threshold	below the threshold	below the threshold	3.92	below the threshold	3.75	below the threshold	3.63	3.96	3.63	below the threshold	below the threshold	below the threshold	below the threshold	below the threshold	below the threshold	below the threshold	below the threshold	pKd (CASK, O14936): below the threshold; pKd (LIN7C, Q9NUP9): below the threshold; pKd (DLG4_1, P78352): below the threshold; pKd (MPP7, Q5T2T1): below the threshold; pKd (MAGI2_3, Q86UL8): 3.48
VNKSKLLTDV [KCNA1, Q09470]	below the threshold	below the threshold	below the threshold	below the threshold	3.91	below the threshold	below the threshold	below the threshold	below the threshold	3.79	below the threshold	4.7	below the threshold	below the threshold	below the threshold	below the threshold	below the threshold	below the threshold	3.78	below the threshold	pKd (CASK, O14936): below the threshold; pKd (LIN7C, Q9NUP9): below the threshold; pKd (DLG4_1, P78352): 4.08; pKd (MPP7, Q5T2T1): below the threshold; pKd (MAGI2_3, Q86UL8): below the threshold

More lines, main results first:

pKd (GORASP1, Q9BQQ3)	pKd (Inadl_2, Q8NI35)	pKd (HTRA3, P83110)	pKd (GRIP1_4, Q9Y3R0)	pKd (GORASP2, Q9H8Y8)	pKd (LNX1_1, Q8TBB1)	pKd (NHERF4_2, Q86UT5)	pKd (FRMPD4, Q14CM0)	pKd (GRID2IP_1, A4D2P6)	pKd (MAGI2_4, Q86UL8)	pKd (ARHGAP21, Q5T5U3)	pKd (DLG3_2, Q92796)	pKd (GRIP1_3, Q9Y3R0)	pKd (APBA1_1, Q02410)	pKd (GRIP2_5, Q9C0E4)	pKd (DFNB31_2, Q9P202)	pKd (PDZRN3_1, Q9UPQ7)	pKd (GIPC2, Q8TF65)	pKd (LIN7B, Q9HAP6)	pKd (FRMPD3, Q5JV73)	Binder	further results
below the threshold	below the threshold	below the threshold	below the threshold	below the threshold	below the threshold	below the threshold	4.29	below the threshold	below the threshold	4.07	3.97	below the threshold	below the threshold	below the threshold	below the threshold	3.8	below the threshold	below the threshold	below the threshold	GQEEQVTTRL [TRPC5, Q9UL62]	pKd (CASK, O14936): below the threshold; pKd (LIN7C, Q9NUP9): below the threshold; pKd (DLG4_1, P78352): below the threshold; pKd (MPP7, Q5T2T1): below the threshold; pKd (MAGI2_3, Q86UL8): below the threshold
below the threshold	below the threshold	below the threshold	below the threshold	below the threshold	below the threshold	below the threshold	below the threshold	below the threshold	3.71	3.58	below the threshold	below the threshold	below the threshold	below the threshold	below the threshold	below the threshold	below the threshold	3.62	below the threshold	TPPAAKKSRI [BAZ1A, Q9NRL2]	pKd (CASK, O14936): below the threshold; pKd (LIN7C, Q9NUP9): below the threshold; pKd (DLG4_1, P78352): below the threshold; pKd (MPP7, Q5T2T1): below the threshold; pKd (MAGI2_3, Q86UL8): below the threshold
below the threshold	below the threshold	below the threshold	below the threshold	below the threshold	below the threshold	below the threshold	below the threshold	below the threshold	below the threshold	below the threshold	4.69	below the threshold	3.48	below the threshold	below the threshold	4.19	below the threshold	4.13	below the threshold	SKENVQETQI [LRRC4B, Q9NT99]	pKd (CASK, O14936): below the threshold; pKd (LIN7C, Q9NUP9): 3.88; pKd (DLG4_1, P78352): 4.02; pKd (MPP7, Q5T2T1): below the threshold; pKd (MAGI2_3, Q86UL8): 3.63
